From paper PMC4042526

Molecular target: Tbx20^eh1mut-EGFP (mouse) (UniProt Q9ES03)
Experiment: affinity purification with mass spectrometry

UniProt Q9ES03, sequence (Q9ES03 whole entry F18L/S19I): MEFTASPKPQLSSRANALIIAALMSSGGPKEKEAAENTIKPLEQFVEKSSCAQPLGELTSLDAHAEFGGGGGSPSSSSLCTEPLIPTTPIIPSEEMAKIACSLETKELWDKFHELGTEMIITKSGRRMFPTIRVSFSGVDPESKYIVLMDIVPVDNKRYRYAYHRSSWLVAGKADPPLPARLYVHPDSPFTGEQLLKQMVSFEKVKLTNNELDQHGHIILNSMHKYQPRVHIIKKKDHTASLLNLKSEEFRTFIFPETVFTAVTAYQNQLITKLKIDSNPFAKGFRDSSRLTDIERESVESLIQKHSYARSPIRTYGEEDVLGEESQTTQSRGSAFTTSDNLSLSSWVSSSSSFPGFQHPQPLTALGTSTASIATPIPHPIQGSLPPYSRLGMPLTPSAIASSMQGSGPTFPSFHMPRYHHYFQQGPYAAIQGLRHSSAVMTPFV

fold decrease in eh1mut against wild-type Tbx20 (MS1-based)	Substance
> 10 fold	Transducin-like enhancer of split 1 (from UniProt Q04724 1-770) (natural protein)
> 10 fold	Transducin-like enhancer of split 3 (from UniProt Q04726 1-772) (natural protein)
